Test results as given in the supplement of paper PMC7877785.
± gives the uncertainty stated by the source.

Assay: self-splicing fitness, log relative to wild type (ln ratio); higher = more splicing; Tetrahymena group I intron in knt gene, E. coli kanamycin selection, DiMSum; sequences stand for … in CUCUCU…GGAGGGAAAAGUUAUCAGGCAUGCACCUGGUAGCUAGUCUUUAAACCAAUAGAUUGCAUCGGUUUAAAAGGCAAGACCGUCAAAUUGCGGGAAAGGGGUCAACAGCCGUUCAGUACCAAGUCUCAGGGGAAACUUUGAGAUGGCCUUGCAAAGGGUAUGGUAAUAAGCUGACGGACAUGGUCCUAACCACGCAGCCAAGUCCUAAGUCAACAGAUCUUCUGUUGAUAUGGAUGCAGUUCACAGACUAAAUGUCGGUCGGGGAAGAUGUAUUCUUCUCAUAAGAUAUAGUCGGACCUCUCCUUAAUGGGAGCUAGCGGAUGAAGUGAUGCAACACUGGAGCCGCUGGGAACUAAUUUGUAUGCGAAAGUAUAUUGAUUAGUUUUGGAGUACUCGUGGUCG
Outline: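 Pooled colonies went to amplicon sequencing on an Illumina HiSeq 2500 after six replicate transformations. The plates were LB agar with 100 μg/mL carbenicillin, 50 μM IPTG and 0.2% rhamnose, with or without 25 μg/mL kanamycin, incubated overnight at 37°C or 30°C. The E. coli BL21(DE3) library had all eight P1ex-region intron nucleotides randomised, the intron placed in the knt kanamycin-resistance gene on pET-22b(+). DiMSum fitness is the error-weighted combination of replicate fold changes, kanamycin against none, normalised to wild type.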

| Sequence | self-splicing fitness (ln) (30 °C) | self-splicing fitness (ln) (37 °C) |
| --- | --- | --- |
| GGGAAGCAAUAUUACGCAUG | -1.38 ± 0.16 | -0.366 ± 0.2 |
| GCAAAGCAAUAUUACGAGGA | -2.49 ± 0.13 | -1.83 ± 0.14 |
| UUCUAGCAAUAUUACGGGGA | -0.859 ± 0.21 | -0.995 ± 0.21 |
| GUUCAGCAAUAUUACGGAUA | -0.566 ± 0.13 | -0.413 ± 0.1 |
| CGAUAGCAAUAUUACGGUUA | -0.777 ± 0.17 | -0.253 ± 0.13 |
| CCCAAGCAAUAUUACGGGCG | -3.29 ± 0.17 | -1.79 ± 0.15 |
| GUCGAGCAAUAUUACGUGAC | -4.99 ± 0.45 | -2.57 ± 0.35 |
| GACCAGCAAUAUUACGUAGC | -0.693 ± 0.069 | -0.496 ± 0.082 |
| GCAAAGCAAUAUUACGCCAG | -2.38 ± 0.15 | -3.19 ± 0.29 |
| CGAAAGCAAUAUUACGCAAU | -3 ± 0.13 | -3.64 ± 0.26 |
| CCUAAGCAAUAUUACGAUAG | -1.12 ± 0.065 | -0.285 ± 0.074 |
| UAACAGCAAUAUUACGCCCG | -0.202 ± 0.16 | -0.59 ± 0.18 |
| AUAUAGCAAUAUUACGGACC | -0.93 ± 0.22 | -0.283 ± 0.24 |
| GAGGAGCAAUAUUACGCCAA | – | -1.6 ± 0.48 |
| UACCAGCAAUAUUACGACGU | -2.11 ± 0.082 | -0.692 ± 0.089 |
| AGAUAGCAAUAUUACGCUCC | – | 0.0911 ± 0.49 |
| CCCUAGCAAUAUUACGGAGU | -4.58 ± 0.36 | -2.99 ± 0.35 |
| CUUGAGCAAUAUUACGUUGA | -3.17 ± 0.27 | -1.97 ± 0.22 |
| GGACAGCAAUAUUACGGGGA | -2.72 ± 0.16 | -3.05 ± 0.26 |
| GGGAAGCAAUAUUACGCACG | -0.766 ± 0.16 | -0.128 ± 0.18 |

| Sequence | self-splicing fitness (ln) (30 °C) | self-splicing fitness (ln) (37 °C) |
| --- | --- | --- |
| GCACAGCAAUAUUACGCCCA | -1.72 ± 0.27 | -0.754 ± 0.24 |
| UCAGAGCAAUAUUACGUGCA | -2.3 ± 0.16 | -2.1 ± 0.18 |
| CUUUAGCAAUAUUACGGUAC | -2.49 ± 0.28 | -3.08 ± 0.47 |
| CAGUAGCAAUAUUACGGAUU | -2.84 ± 0.17 | -3.21 ± 0.27 |
| GGAUAGCAAUAUUACGGGGC | -3.69 ± 0.23 | -1.95 ± 0.16 |
| UCACAGCAAUAUUACGUGUA | -2.2 ± 0.089 | -1.09 ± 0.088 |
| CUCUAGCAAUAUUACGAUGG | -3.61 ± 0.19 | -1.91 ± 0.14 |
| CCAUAGCAAUAUUACGUAAG | -0.421 ± 0.055 | -0.575 ± 0.07 |
| UAUGAGCAAUAUUACGUCUA | -0.497 ± 0.1 | -0.408 ± 0.13 |
| UGAGAGCAAUAUUACGUGUG | -2.9 ± 0.14 | -2.28 ± 0.12 |
| CCCAAGCAAUAUUACGAUGC | -4.67 ± 0.29 | -2.15 ± 0.24 |
| AUUCAGCAAUAUUACGGCAC | -0.847 ± 0.074 | -0.407 ± 0.096 |
| UGGGAGCAAUAUUACGUGUA | – | -2.2 ± 0.26 |
| UUUCAGCAAUAUUACGCUGG | -3.94 ± 0.3 | -1.77 ± 0.33 |
| CUGGAGCAAUAUUACGGUAG | -2.51 ± 0.22 | -0.514 ± 0.16 |
| UUAUAGCAAUAUUACGAUAC | – | -1.53 ± 0.27 |
| CCCUAGCAAUAUUACGUAUA | -3.24 ± 0.25 | -2.89 ± 0.4 |
| CGAAAGCAAUAUUACGGUAA | -2.13 ± 0.16 | -1.56 ± 0.15 |
| AAUUAGCAAUAUUACGUAGG | -2.69 ± 0.12 | -1.96 ± 0.18 |
